Test results as given in the MegaScale stability set (Tsuboyama et al. 2023).

B1: EEHEE_rd4_0647 (parent)
chain: MQVTWGNVTVTFSNPEEAKKYAEKVARKLGGQVELHNGQFRIK

Variants of: B1
Assay: folding stability dG (cDNA display proteolysis); higher = more stable
Conditions: PBS, room temperature

Row | Variant | folding stability dG
1 | MQVTWGNDTVTFSNPEEAKKYAEKVARKLGGQVELHNGQFRIK [V8D] | 1.33 kcal/mol
2 | MQVTWGNFTVTFSNPEEAKKYAEKVARKLGGQVELHNGQFRIK [V8F] | 2.81 kcal/mol
3 | MQVTWGNLTVTFSNPEEAKKYAEKVARKLGGQVELHNGQFRIK [V8L] | 2.45 kcal/mol
4 | MQVTWGNSTVTFSNPEEAKKYAEKVARKLGGQVELHNGQFRIK [V8S] | 2.01 kcal/mol
5 | MQVTWGNMTVTFSNPEEAKKYAEKVARKLGGQVELHNGQFRIK [V8M] | 2.68 kcal/mol
6 | MQVTWGNETVTFSNPEEAKKYAEKVARKLGGQVELHNGQFRIK [V8E] | 1.92 kcal/mol
7 | MQVTWGNPTVTFSNPEEAKKYAEKVARKLGGQVELHNGQFRIK [V8P] | 0.417 kcal/mol
8 | MQVTWGNNTVTFSNPEEAKKYAEKVARKLGGQVELHNGQFRIK [V8N] | 2.51 kcal/mol
9 | MQVTWGNATVTFSNPEEAKKYAEKVARKLGGQVELHNGQFRIK [V8A] | 1.89 kcal/mol
10 | MQVTWGNITVTFSNPEEAKKYAEKVARKLGGQVELHNGQFRIK [V8I] | 2.96 kcal/mol
11 | MQVTWGNYTVTFSNPEEAKKYAEKVARKLGGQVELHNGQFRIK [V8Y] | 2.84 kcal/mol
12 | MQVTWGNKTVTFSNPEEAKKYAEKVARKLGGQVELHNGQFRIK [V8K] | 2.57 kcal/mol
13 | MQVTWGNWTVTFSNPEEAKKYAEKVARKLGGQVELHNGQFRIK [V8W] | 2.79 kcal/mol
14 | MQVTWGNRTVTFSNPEEAKKYAEKVARKLGGQVELHNGQFRIK [V8R] | 2.5 kcal/mol
15 | MQVTWGNHTVTFSNPEEAKKYAEKVARKLGGQVELHNGQFRIK [V8H] | 2.8 kcal/mol
16 | MQVTWGNGTVTFSNPEEAKKYAEKVARKLGGQVELHNGQFRIK [V8G] | 1.49 kcal/mol
17 | MQVTWGNTTVTFSNPEEAKKYAEKVARKLGGQVELHNGQFRIK [V8T] | 2.64 kcal/mol
18 | MQVTWGNQTVTFSNPEEAKKYAEKVARKLGGQVELHNGQFRIK [V8Q] | 2.35 kcal/mol
19 | MQVTWGCVTVTFSNPEEAKKYAEKVARKLGGQVELHNGQFRIK [N7C] | 3.66 kcal/mol
20 | MQVTWGRVTVTFSNPEEAKKYAEKVARKLGGQVELHNGQFRIK [N7R] | 2.64 kcal/mol

Row | Variant | folding stability dG
21 | MQVTWGAVTVTFSNPEEAKKYAEKVARKLGGQVELHNGQFRIK [N7A] | 2.39 kcal/mol
22 | MQVTWGIVTVTFSNPEEAKKYAEKVARKLGGQVELHNGQFRIK [N7I] | 2.31 kcal/mol
23 | MQVTWGKVTVTFSNPEEAKKYAEKVARKLGGQVELHNGQFRIK [N7K] | 2.72 kcal/mol
24 | MQVTWGWVTVTFSNPEEAKKYAEKVARKLGGQVELHNGQFRIK [N7W] | 2.43 kcal/mol
25 | MQVTWGSVTVTFSNPEEAKKYAEKVARKLGGQVELHNGQFRIK [N7S] | 2.68 kcal/mol
26 | MQVTWGVVTVTFSNPEEAKKYAEKVARKLGGQVELHNGQFRIK [N7V] | 2.33 kcal/mol
27 | MQVTWGMVTVTFSNPEEAKKYAEKVARKLGGQVELHNGQFRIK [N7M] | 2.37 kcal/mol
28 | MQVTWGFVTVTFSNPEEAKKYAEKVARKLGGQVELHNGQFRIK [N7F] | 2.43 kcal/mol
29 | MQVTWGDVTVTFSNPEEAKKYAEKVARKLGGQVELHNGQFRIK [N7D] | 2.58 kcal/mol
30 | MQVTWGPVTVTFSNPEEAKKYAEKVARKLGGQVELHNGQFRIK [N7P] | 2.29 kcal/mol
31 | MQVTWGEVTVTFSNPEEAKKYAEKVARKLGGQVELHNGQFRIK [N7E] | 2.39 kcal/mol
32 | MQVTWGGVTVTFSNPEEAKKYAEKVARKLGGQVELHNGQFRIK [N7G] | 2.58 kcal/mol
33 | MQVTWGYVTVTFSNPEEAKKYAEKVARKLGGQVELHNGQFRIK [N7Y] | 2.54 kcal/mol
34 | MQVTWGQVTVTFSNPEEAKKYAEKVARKLGGQVELHNGQFRIK [N7Q] | 2.49 kcal/mol
35 | MQVTWGTVTVTFSNPEEAKKYAEKVARKLGGQVELHNGQFRIK [N7T] | 2.67 kcal/mol
36 | MQVTWGLVTVTFSNPEEAKKYAEKVARKLGGQVELHNGQFRIK [N7L] | 2.27 kcal/mol
37 | MQVTWGHVTVTFSNPEEAKKYAEKVARKLGGQVELHNGQFRIK [N7H] | 2.64 kcal/mol
38 | MQVTWGNVPVTFSNPEEAKKYAEKVARKLGGQVELHNGQFRIK [T9P] | 0.422 kcal/mol
39 | MQVTWGNVMVTFSNPEEAKKYAEKVARKLGGQVELHNGQFRIK [T9M] | 2.15 kcal/mol
40 | MQVTWGNVGVTFSNPEEAKKYAEKVARKLGGQVELHNGQFRIK [T9G] | 0.945 kcal/mol

Row | Variant | folding stability dG
41 | MQVTWGNVHVTFSNPEEAKKYAEKVARKLGGQVELHNGQFRIK [T9H] | 1.77 kcal/mol
42 | MQVTWGNVAVTFSNPEEAKKYAEKVARKLGGQVELHNGQFRIK [T9A] | 1.85 kcal/mol
43 | MQVTWGNVYVTFSNPEEAKKYAEKVARKLGGQVELHNGQFRIK [T9Y] | 1.85 kcal/mol
44 | MQVTWGNVSVTFSNPEEAKKYAEKVARKLGGQVELHNGQFRIK [T9S] | 2.26 kcal/mol
45 | MQVTWGNVRVTFSNPEEAKKYAEKVARKLGGQVELHNGQFRIK [T9R] | 2.06 kcal/mol
46 | MQVTWGNVQVTFSNPEEAKKYAEKVARKLGGQVELHNGQFRIK [T9Q] | 1.84 kcal/mol
47 | MQVTWGNVCVTFSNPEEAKKYAEKVARKLGGQVELHNGQFRIK [T9C] | 3.2 kcal/mol
48 | MQVTWGNVNVTFSNPEEAKKYAEKVARKLGGQVELHNGQFRIK [T9N] | 1.62 kcal/mol
49 | MQVTWGNVIVTFSNPEEAKKYAEKVARKLGGQVELHNGQFRIK [T9I] | 2.71 kcal/mol
50 | MQVTWGNVFVTFSNPEEAKKYAEKVARKLGGQVELHNGQFRIK [T9F] | 1.95 kcal/mol
51 | MQVTWGNVDVTFSNPEEAKKYAEKVARKLGGQVELHNGQFRIK [T9D] | 0.892 kcal/mol
52 | MQVTWGNVEVTFSNPEEAKKYAEKVARKLGGQVELHNGQFRIK [T9E] | 1.46 kcal/mol
53 | MQVTWGNVLVTFSNPEEAKKYAEKVARKLGGQVELHNGQFRIK [T9L] | 2.22 kcal/mol
54 | MQVTWGNVWVTFSNPEEAKKYAEKVARKLGGQVELHNGQFRIK [T9W] | 1.78 kcal/mol
55 | MQVTWGNVKVTFSNPEEAKKYAEKVARKLGGQVELHNGQFRIK [T9K] | 2.02 kcal/mol
56 | MQVTWGNVVVTFSNPEEAKKYAEKVARKLGGQVELHNGQFRIK [T9V] | 2.84 kcal/mol
57 | MQVTSGNVTVTFSNPEEAKKYAEKVARKLGGQVELHNGQFRIK [W5S] | 0.968 kcal/mol
58 | MQVTNGNVTVTFSNPEEAKKYAEKVARKLGGQVELHNGQFRIK [W5N] | 1.12 kcal/mol
59 | MQVTQGNVTVTFSNPEEAKKYAEKVARKLGGQVELHNGQFRIK [W5Q] | 0.719 kcal/mol
